Values of other authors as cited in article PMC8864681.

Experiments:
Asp14 = Asp14 (UniProt position 40, ERQHMDSSTSA)
Asp28 = Asp28 (UniProt position 50, MTDDIDEVRWE)
Asp67 = Asp67 (UniProt position 1513, LKPGVDYTITV)
Asp26 = Asp26 (UniProt position 26, KLVVVDFSATW)

For “Ribonuclease A (pancreatic ribonuclease) (Bos taurus)”, the pKa (Asp14) is listed as 2.0.

In the case of “T-cell surface antigen CD2 (cell adhesion molecule CD2) (Rattus rattus as printed ('black rat'); the PDB 1HNG source is commonly annotated as rat (Rattus norvegicus))”, the pKa (Asp28) is given as 3.57.

In the case of “Fibronectin, tenth type III cell adhesion module (FN10) (Homo sapiens)”, the pKa (Asp67) is listed as 4.2.

For “Thioredoxin (recombinant human) (Homo sapiens)”, the pKa (Asp26) is given as 9.9.
